Ends that are not written are not given here.

The assay deals with human Factor IXa (human, UniProt P00740 47-191; P00740 227-461). The assay can be described thus: cell-based or functional assay.
As for RRAPGKLTCLASYCWLFSTPVARKSLRRHQPT (not fully specified (C-terminus); cysteine pairing not given here) [RRAPGKLTCLASYCWLF STPVA RKSLRRHQPT], the “EC50 [µM], FXa generation assay” value is above 10 µM.
The same measure, in the same setting: with SRIRTVGPGSRSASGKLTCLASYCWLFWTGIA the figure was below 0.5 µM; with PRIRTSGPGSRSASGKLTCLASYCWLFWTGIA, below 0.5 µM; with PRIRTVGSGSRSASGKLTCLASYCWLFWTGIA, below 0.5 µM.
For the molecule PRIRSVGPGSRSASGKLTCLASYCWLFWTGIA, the “EC50 [µM], FXa generation assay” value was below 0.5 µM.
For the molecule PRIRTVGPGSRSASGKSTCLASYCWLFWTGIA, the “EC50 [µM], FXa generation assay” value was below 0.5 µM.
On the same count and under the same terms, with PRIRTVGPSSRSASGKLTCLASYCWLFWTGIA the figure was below 0.5 µM.
Still for that read-out and setting: next, PRISTVGPGSRSASGKLTCLASYCWLFWTGIA: below 0.5 µM.
Consider PSIRTVGPGSRSASGKLTCLASYCWLFWTGIA (not fully specified; cysteine pairing not given here), for which the “EC50 [µM], FXa generation assay” value is below 0.5 µM.
On the same count and under the same terms, with PRSRTVGPGSRSASGKLTCLASYCWLFWTGIA the figure was below 0.5 µM; with PRIRTVSPGSRSASGKLTCLASYCWLFWTGIA, below 0.5 µM.
For the molecule RRAPGKLTCLASYCWLFWTGLASTLYKTYTRE [RRAPGKLTCLASYCWLF WTGLA STLYKTYTRE], the “EC50 [µM], FXa generation assay” value was above 1 µM.
Still for that read-out and setting: with RRAPGKLTCLASYCWLFEPGIAQPYAKSPTRN [RRAPGKLTCLASYCWLF EPGIA QPYAKSPTRN] the figure was above 1 µM.
As to RRAPGKLQCLASYCWLFWTGIA-NH2 (not fully specified (bridges); cysteine pairing not given here) [compound 3], the “EC50 [µM], FXa generation assay with hFIXa” value is below 0.5 µM.
For RRAPGKLTCLASYCWLFWTGLSRYQWQAQEDV [RRAPGKLTCLASYCWLF WTGLS RYQWQAQEDV], the “EC50 [µM], FXa generation assay” value was above 1 µM.
On to RRAPGKLTCLASYCWLFWRGFAERASEDTNQG [RRAPGKLTCLASYCWLF WRGFA ERASEDTNQG], for which the “EC50 [µM], FXa generation assay” value was above 1 µM.
The same measure, in the same setting: next, RRAPGKLTCLASYCWLFWTGWCRDTASHACDS [RRAPGKLTCLASYCWLF WTGWC RDTASHACDS]: above 1 µM.
On the same count and under the same terms, next, RRAPGKLTCLASYCWLFQTGWAYWGYRQHPGS [RRAPGKLTCLASYCWLF QTGWA YWGYRQHPGS]: below 0.5 µM.
Still for that read-out and setting: with RRAPGKLTCLASYCWLFWTGFAFRVGLASSLY [RRAPGKLTCLASYCWLF WTGFA FRVGLASSLY] the figure was below 0.5 µM.
As to RRAPGKLTCLASYCWLFWTGWAVLARVPVGWT [RRAPGKLTCLASYCWLF WTGWA VLARVPVGWT], the “EC50 [µM], FXa generation assay” value is below 0.5 µM.

The values above are taken from patent US20140303084A1 (Biogen, published 2014).
